Target: Neurotensin (NTS) (UniProt P30990 151-163)
Assay: cell-based or functional assay

apoptosis of A2780 cells (Annexin V-FITC/PI, flow cytometry), fold increase relative to control cells: 2.5 fold
apoptosis of SKOV3 cells (Annexin V-FITC/PI, flow cytometry), fold increase relative to control cells: 8.2 fold
B1: NTSp27-7.4 (antibody, V domains shown)
VH: DVKLVESGGGLVKLGGSLKLSCAASGFTFSGYYMSWVRQTPEKRLELVAAINNYGDNTNYPDTVKGRFSVSRDNAKNTLYLEMNSLKSEDTALYYCARLANYANQRGAMDYWGQGTSVTVSS
VL: DIQMTHTTSSLSASLGDRVTISCRASQDIANYLNWYQQKPDGTVTLLIYYTSRLHSGVPSRFSGSGSGTDYSLTINNLDQEDIATYFCQQGYTLPPTFGGGTKLEIK

— patent US20170233470A1 (INSERM INSTITUT NATIONAL DE LA SANT ET DE LA RECHERCHE M …, published 2017)
